B1: DUX4(half) (dsDNA)
DNA 1: GGCAGTCCAGCGTAATCAAGTCGGC
DNA 2: GCCGACTTGATTACGCTGGACTGCC
B2: Pitx1-25 (dsDNA)
DNA 1: GGCAGTCTTCTAATTAGTAGTCGGC
DNA 2: GCCGACTACTAATTAGAAGACTGCC
B3: SELEX4 (dsDNA)
DNA 1: GGCAGTCTAATGTTTTATAGTCGGC
DNA 2: GCCGACTATAAAACATTAGACTGCC
B4: MALR (dsDNA)
DNA 1: GGCAGTCTAATTGAATCAAGTCGGC
DNA 2: GCCGACTTGATTCAATTAGACTGCC
B5: DUX4(TC) (dsDNA)
DNA 1: GGCAGTCTAATTCAATCAAGTCGGC
DNA 2: GCCGACTTGATTGAATTAGACTGCC
B6: DUX4(mut) (dsDNA)
DNA 1: GGCAGTCGTGAATAATCAAGTCGGC
DNA 2: GCCGACTTGATTATTCACGACTGCC
B7: DUX4(CC) (dsDNA)
DNA 1: GGCAGTCTAATCCAATCAAGTCGGC
DNA 2: GCCGACTTGATTGGATTAGACTGCC
B8: DUX4(TT) (dsDNA)
DNA 1: GGCAGTCTAATTTAATCAAGTCGGC
DNA 2: GCCGACTTGATTAAATTAGACTGCC
B9: SELEX2 (dsDNA)
DNA 1: GGCAGTCTAATTCAATCCAGTCGGC
DNA 2: GCCGACTGGATTGAATTAGACTGCC

Target: T1, DUX4 DNA-binding domain (DUX4-HD, both homeodomains) (UniProt Q9UBX2 19-152)
Test: EMSA; excess protein; Direct EMSA: 10 uL 100 uM probe + 20 uL 250 uM protein (protein stock in 500 mM NaCl, 20 mM Tris-Cl pH 7.4), 1 h on ice, 3% agarose, EtBr; competition: 10 uL 100 uM competitor, 2 uL 125 uM protein (50% glycerol, 250 mM NaCl, 10 mM Tris-Cl pH 7.4), 2 uL 100 uM FAM-CT, 30 uL total, 1 h on ice
Conditions: protein: recombinant; tags: N-terminal His6 removed by TEV (first construct); His-SUMO fusion (later construct); blunt

T1 sequence (Q9UBX2 19-152): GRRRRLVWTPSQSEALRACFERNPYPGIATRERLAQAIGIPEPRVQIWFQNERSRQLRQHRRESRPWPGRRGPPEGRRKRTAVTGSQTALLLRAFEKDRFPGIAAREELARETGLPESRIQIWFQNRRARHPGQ

| Binder | binding result |
| --- | --- |
| B1 | no binding |
| B2 | no binding |
| B3 | no binding |
| B4 | binds |

Target: T1, DUX4 DNA-binding domain (DUX4-HD, both …)
Test: competition; vs FAM-CT; Direct EMSA: 10 uL 100 uM probe + 20 uL 250 uM protein (protein stock in 500 mM NaCl, 20 mM Tris-Cl pH 7.4), 1 h on ice, 3% agarose, EtBr; competition: 10 uL 100 uM competitor, 2 uL 125 uM protein (50% glycerol, 250 mM NaCl, 10 mM Tris-Cl pH 7.4), 2 uL 100 uM FAM-CT, 30 uL total, 1 h on ice
Conditions: protein: recombinant; tags: N-terminal His6 removed by TEV (first construct); His-SUMO fusion (later construct); blunt

| Binder | binding result |
| --- | --- |
| B5 | binds |
| B6 | no binding |
| B7 | binds |
| B8 | binds |

Target: T1, DUX4 DNA-binding domain (DUX4-HD, both …)
Test: competition; vs FAM-CT; CT competed best; Direct EMSA: 10 uL 100 uM probe + 20 uL 250 uM protein (protein stock in 500 mM NaCl, 20 mM Tris-Cl pH 7.4), 1 h on ice, 3% agarose, EtBr; competition: 10 uL 100 uM competitor, 2 uL 125 uM protein (50% glycerol, 250 mM NaCl, 10 mM Tris-Cl pH 7.4), 2 uL 100 uM FAM-CT, 30 uL total, 1 h on ice
Conditions: protein: recombinant; tags: N-terminal His6 removed by TEV (first construct); His-SUMO fusion (later construct); blunt

| Binder | binding result |
| --- | --- |
| B9 | binds |
